Laboratory results taken from patent US20200239586A1 (LA TROBE UNIVERSITY, published 2020).

Columns and labels:
[1] = target: T1, His tagged hFn14 extracellular region mutant R56A (human, UniProt Q9NP84 28-77); assay: ELISA with purified His-tagged hFn14 R56A; x axis 'Log (c)' without unit, µg/ml by the legend
T1 construct: not shown: (His)6 tag

[2] = target: T2, Histidine tagged hFn14 extracellular domain, bacterially expressed (human, UniProt Q9NP84 28-77); assay: SPR (ProteOn XPR36), mAb coupled to chip, His-tagged hFn14 analyte, Langmuir 1:1 fit
T2 construct: also called recombinant Fn14; recombinant human Fn14; not shown: (His)6 tag from pET-15b
Protocol: The kinetic analysis of the monoclonal antibodies was performed on a ProteOn XPR36 system (BioRad) Laboratories) essentially according to the protocol from Nahshol et al (2008). Monoclonal antibodies against hFn14 (50 μg/ml) were covalently coupled to a GMC chip. Analytes were a serial dilution of bacterially expressed and purified Histidine tagged hFn14. The binding sensorgrams were collected, processed and analyzed using the integrated ProteOn Manager software (BioRad Laboratories). Binding curves were fitted using the Langmuir model describing 1:1 binding stoichiometry.
Binding kinetics of anti-Fn14 antibodies CRCBT-06-001, CRCBT-06-002, CRCBT-06-004, ITEM-1 and ITEM-4 were assessed as described herein and results are set out in Table 4.

[3] = target: phage expressed hFn14 mutant S54A (human, UniProt Q9NP84 28-77); assay: phage ELISA, mAb coated (Method 2)
Chain of phage expressed hFn14 mutant S54A (Q9NP84 28-77 S54A): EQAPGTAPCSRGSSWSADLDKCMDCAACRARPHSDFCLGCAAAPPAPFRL
Protocol: (§1) The wells of Maxisorp immunoplates (Nunc) were coated overnight at 4° C. with the target monoclonal antibodies or recombinant Tweak-Fc at a concentration of 1.5 μg/ml in PBS. mAb 5G8 was used as a negative control for ELISA plates coated with tested antibodies. […] 10-fold serial dilutions of phage were made using PBS solution and phage dilutions were added to the coated, blocked ELISA plates for 1 hour, shaking at room temperature. Phage was subsequently removed from the wells and the ELISA plates were washed three times with PBS/0.05% Tween 20.
Method A: HRP-conjugated anti-M13-phage antibody (GE Healthcare) at a 1/5000 dilution in PBS was then added to the wells of the ELISA plates for 1 hour, shaking at room temperature. The antibody solution was then removed from the wells and the ELISA plates were washed four times with PBS/0.05% Tween 20. Method B: Biotin-conjugated anti-M13-phage antibody (GE Healthcare) diluted in PBS was then added to the wells of the ELISA plates for 1 hour shaking at room temperature. The antibody solution was then removed from the wells and the ELISA plates were washed three times with PBS/0.05% Tween 20. HRP-conjugated Streptavidin diluted in PBS was then added to the wells of the ELISA plates for 1 hour, shaking at room temperature. […] Optical density at 450 nm was quantified using a Spectramax absorbance spectrophotometer.

[4] = target: phage expressed hFn14 mutant H60K (human, UniProt Q9NP84 28-77); assay: phage ELISA (Method 2): antibody coated on the plate, 10-fold dilutions of phage displaying hFn14 H60K; biotin anti-M13 antibody, streptavidin-HRP, TMB, OD 450 nm; x axis = dilution of phage
Chain of phage expressed hFn14 mutant H60K (Q9NP84 28-77 H60K): as the sequence (Q9NP84 28-77 S54A) above, with A27S, H33K counted along it
Protocol: ELISAs showing the reactivity of mutant H60A and H60K hFn14 phage constructs with the anti-Fn14 monoclonal antibodies CRCBT-06-001, CRCBT-06-002, CRCBT-06-004 compared to ITEM-1 and ITEM-4. ITEM-2 was assessed on H60K. Binding was detected using Biotin-conjugated anti-M13-phage monoclonal antibody followed by HRP-conjugated Streptavidin and TMB substrate. Optical density at 450 nm was quantified using a Spectramax spectrophotometer. Error bars for each dilution represent the standard deviation of duplicate assays. X axis=dilution of phage. Methods according to Epitope mapping using phage expressed Fn14—Method 2.
as §1
Method A: HRP-conjugated anti-M13-phage antibody (GE Healthcare) at a 1/5000 dilution in PBS was then added to the wells of the ELISA plates for 1 hour, shaking at room temperature. […]

recombinant Fn14-Fc = target: T3, recombinant Fn14-Fc (human, UniProt Q9NP84 28-77); assay: SPR (ProteOn XPR36), mAb captured on anti-mouse IgG, Fn14-Fc analyte, Langmuir fit
T3 construct: also called native Fn14; not shown: Fc region (recognised by anti-human Fc)
T3 sequence (Q9NP84 28-77): as the sequence (Q9NP84 28-77 S54A) above, with A27S counted along it
Protocol: The interaction of mouse anti-Fn14 IgG monoclonal antibodies CRCBT-06-001 and CRCBT-06-002 with recombinant Fn14-Fc was measured using the Bio-Rad ProteOn XPR36 essentially as described by Nahshol et al., (2008). Briefly, a GLM ProteOn sensor chip was activated by flowing a mixture of 0.2 M EDC and 0.05 M sulpho-NHS over the chip (150 μl at 30 μl/min for 5 minutes). Rabbit anti-mouse IgG whole molecule (Sigma M-7023) was then coupled to the chip in the vertical orientation by flowing 150 μl of a 50 μg/ml solution in 10 mM acetate buffer (pH 4.5) at 30 μl/min. The remaining coupling sites were then deactivated by flowing 150 μl of 1 M ethanolamine-HCl (pH 8.5) at 30 μl/min. Mouse anti-Fn14 IgG monoclonal antibodies were then bound to the coupled anti-mouse IgG antibody by flowing 150 μl of 100 μg/ml IgG at 25 μl/min over a single channel of the sensor chip in the horizontal direction. […] PBS Tween 20 (0.005%) alone was passed over the remaining channel. Binding sensorgrams were collected and analyzed with the ProteOn Manager 2.1 XPR36 software using the Langmuir or bivalent analyte kinetic models to fit the data and determine the affinity constant KD.
A Bio-Rad ProteOn XPR36 was used to determine the affinity of mouse monoclonal anti-Fn14 antibodies CRCBT-06-001 and CRCBT-06-002 to recombinant Fn14-Fc. It is clear that both antibodies tested display a high on-rate and a low off-rate. The ProteOn software was used to fit a curve to the sensorgram based on a mathematical model, enabling the kinetics of the interaction (ka, Kd and KD) to be calculated. A number of models can be used to fit the curves to the sensorgram, essentially the models used for each sensorgram were used as they provided the best fit, as evident by the low Chi² value obtained for the residuals.

T1 sequence (Q9NP84 28-77 R56A): as the sequence (Q9NP84 28-77 S54A) above, with A27S, R29A counted along it

Row | Binder | binding result [1] | Kd [2] [nM] | koff [2] [s⁻¹] | kon [2] [M⁻¹ s⁻¹] | binding result [3] | binding result [4] | Kd (recombinant Fn14-Fc) [nM] | koff (recombinant Fn14-Fc) [s⁻¹] | kon (recombinant Fn14-Fc) [M⁻¹ s⁻¹]
1 | CRCBT-06-001 (antibody, IgG2b, V domains shown) VH: QVQLQQSGGGLVQPGGSMKLSCIASGFTFSSYWMSWVRQSPEKGLEWVAEIRSKSDNYATHYAESVKGKFTISRDDSKSRFFLQMNNLRAEDTGIYYCSSTYADYFHYWGQGTDLTVSS VL: DIVMTQTPASLAVSLGQRATISCRASQSVSTSTYSYMHWYQQKPGQPPKLLIKYASSLESGVPARFSGSGSGTDFTLNIHPVEEDDTATYYCQHSWEIPYTFGGGTKLEIKR | binds | 0.55 | 0.000102 | 186000 | binds | binds | 0.768 | 1.81e-05 | 23600
2 | CRCBT-06-002 (antibody, IgG1, V domains shown) VH: EVKLQQSGGGLVQPGGSMKLSCVASGFTFSYYWMNWVRQSPEQGLEWIAEIRLQSNDYPTHYAESVKGRFTISRDDSKNSVYLQMNNLRPEDTGIYYCACRYADYFDHWGQGTTLTVSS VL: DTVLTQSPASLVVSLGQRATISCRASQSVSTSDYSYIHWYQQKPGQPPKFLIKYASNRDSGVPARFSGSGSGTDFTLNIHPVEEDDTAIYYCQHSWEIPPTFGAGTKLELQR | binds | 0.198 | 2.59e-05 | 131000 | binds | binds |  |  | 
